For the assay, the target named is T1, XRCC4 (residues 1-336) (human, UniProt Q13426 1-336).
T1 construct: XRCC4, human, residues 1-336; The copies value of 2 rests on the introduction's words (one XRCC4 homodimer and one Lig4 monomer in the active complex), not on a measurement made here; also called X4
The experiment in a line: differential scanning fluorimetry; Lig4 C-ter and XRCC4 equimolar at 5 uM in 20 mM HEPES pH 7.5, 100 mM KCl, 2 mM EDTA, 1 mM DTT, 66 mM NDSB-195, 10% glycerol, 10X SYPRO Orange; heated from 20 to 89 °C. The following applies: both partners purified.

The text below walks through data of publication PMC4786802, “Structure-Based Virtual Ligand Screening on the XRCC4/DNA Ligase IV Interface” (Scientific Reports, 2016).

T1 sequence (Q13426 whole entry, the tested form may be a part): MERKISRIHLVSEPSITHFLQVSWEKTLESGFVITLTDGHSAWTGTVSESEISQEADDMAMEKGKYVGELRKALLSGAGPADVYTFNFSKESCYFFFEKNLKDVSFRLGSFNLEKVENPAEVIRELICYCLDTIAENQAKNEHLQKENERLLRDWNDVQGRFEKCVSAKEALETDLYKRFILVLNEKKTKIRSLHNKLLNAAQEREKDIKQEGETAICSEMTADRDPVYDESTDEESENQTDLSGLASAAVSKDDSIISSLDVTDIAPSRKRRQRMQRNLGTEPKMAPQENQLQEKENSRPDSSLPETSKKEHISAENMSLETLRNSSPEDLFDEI

B1: WT Lig4 C-ter domain (654-911) (domain or fragment, human, UniProt P49917 654-911, looked up)
chain: KISNIFEDVEFCVMSGTDSQPKPDLENRIAEFGGYIVQNPGPDTYCVIAGSENIRVKNIILSNKHDVVKPAWLLECFKTKSFVPWQPRFMIHMCPSTKEHFAREYDCYGDSYFIDTDLNQLKEVFSGIKNSNEQTPEEMASLIADLEYRYSWDCSPLSMFRRHTVYLDSYAVINDLSTKNEGTRLAIKALELRFHGAKVVSCLAEGVSHVIIGEDHSRVADFKAFRRTFKRKFKILKESWVTDSIDKCELQEENQYLI
notes: DNA ligase IV (Lig4), human, C-terminal fragment with the two BRCT domains and the clamp domain, residues 654-911; also called Lig4 C-ter fragment; C-ter Lig4 protein; source: Escherichia coli BL21 (DE3), purified (HisTrap HP, HiTrap Q HP)
In the case of B1, the binding result was “binds”.
